# Experiment: soluble on expression in E. coli; label from the status in PepcDB or PDB records
row,Sequence,soluble on expression in E. coli
1,MLDLFADAEPWQEPLAAGAVILRRFAFNAAEQLIRDINDVASQSPFRQMVAPGGYTMSVAMTNCGHLGWTTHRQGYLYSPIDPQTNKPWPAMPQSFHDLCQRAATAAGYPDFQPDACLINRYAPGAKLSLHQDKDEPDLRAPIVSVSLGLPAIFQFGGLKRNDPLKRLLLEHGDVVVWGGESRLFYHGIQPLKAGFHPLTTDCRYNLTFRQAGKKE,not soluble
2,MLDPFSEKAKELLKEFGSMNEFLQAIPSLVDIEEVMNRLKFAKESEISEDILNIEDIRDLASFYAQIGALAYSPYGLELELVKKANLRIYTERIRRRRKIRSDEIGIEVKIAVEFPENDIKTLEKVYGGLPEYIVSLREFLDLVPDEKLSSYYVYDGNVYLRKDDLLKVWSKAFERNVEKAVNIIYEIRDELPEFYRRLAGEIRSFAEKEFSDKFREVQAGELKHHLFPPCVKNALRGVPQGMRNYAITVLLTSFLSYARICPNPPRRNVKIRDCIKDMRVITEEILPIIIEAGNRCSPPLFEDQPNEIKNIWYHLGFGYTANPTLEDSGNSTWYFPPNCDKIKANAPQLCTPDKHCRYIRNPLTYYLRRLYLEEKRRAKHADEGSDKGGKERILQLEHHHHHH,not soluble
3,MLDRFATKQTQEKLKIGVVGVFAIGCLFPLLSDFKRSYPHIDLHISTHNNRVDPAAEGLDYTIRYGGGAWHDTDAQYLCSALMSPLCSPTLASQIQTPADILKFPLLRSYRRDEWALWMQTVGEAPPSPTHNVMVFDSAVTMLEAAQAGMGVAIAPVRMFTHLLSSERIVQPFLTQIDLGSFWITRLQSRPETPAMREFSRWLTGVLHKTSGSHHHHHH,soluble
4,MLEEVERWLDARSWPAADRPVQHLLSAKHATGQSVSVVLPALDEEATVGDIVSVIRRELVLGVPLVDEIVVVDSGSSDRTSEVAAAAGARVVHRDAILPRIPAVPGKGEVLWRSLLVTGGDIVCFVDADLREFSADFVSGIVGPLLTDPDVHLVKAMYDRPLAGAAGQGGRVTELMARPLLNMHWPQLAGFVQPLGGEYAARRSLLERLPFPVGYGVELGMLVDALHLVGLDALAQVDVGVRVHRHQDGRALGRMAAAIYRTAQLRLARGHLVRPALTQFERGVDGFEPRTYAVDTEERPPMTEIAEYAARKVALEHHHHHH,soluble
5,MLEHRRLFPGRRYDSRVYRSCASPMPYLLEEKLRGTAMEQRTPPSEAVISGPATPGLAEGKISAYLLDLATRTLRPPTFPPLSDSTVTAKDTVCLVGGPELAWLAVGMTPFRNITSVTLQQGELKSCSLQESMEWMRLAHLLKAAPEQVNGDGGEALALQRRLAAVRTDLVLLDLLANGHPTTGLPQVLATPFADVLDAYVDMEKEQHSAAAPSAPQNVGRLRSVLFDEEPVTGVHLEQPSLRLRLVSLQQLLVRIVRALSGAHVGLPAGNRPTPHAATLLEMTLQTHGLLCGGGVPSQAWSPTPDPADASSGGSSTAALNGTVLLDKFPRLSAEMLLQHVTYLLSNEAKQRTANAADGAGEGSDSIYLSPQRTRHFGLTGVETLLLSATQAEQVNQVLPLYVRGHTLPDEVASDITQTRNIHEAVRKTQRVLSRVLQQASQELASQSGSGTAAVDDAGHNGPHPALAHLPSHLFVRTAGARGPPPGWEYYGVHLGIKAEAMNVRYNLNASDTATLHLIDSSGSSNSGGVTATAGSEVGAESTRSGMPG,not soluble
6,MLEIRHLKTLHALREADSLVDAAERLHLTQSALSHQFKELEERMGMPLFVRKTKPVRFTSAGLRLLQLADSMLPQLRSAERDIARLAGGTAGRLHMAIECHSCFQWLMPTIDQFRDAWPEVELDLSSGFSFAPLPALARGDLDLVVTSDPLELPGITYVPLFTYEAMLAVANQHALASKPYIVPEDLLPETLITYPVERDRLDIFTRFLEPADIEPAQVRTSELTVMMMQLVASGRGVCGMPHWALHEYSSRGYVKAKRLGEKGLFATLYAGIRADMLDAPYMRDFLLTAKDTSFSTLDGVSVVR,not soluble
7,MLELDTRQIRMGQRAADKAEALRLLGAALVADGLAAPGYAEGLKAREAQGSTYLGQGIAIPHGTPDTRELVFSTGVRLLQFPEGVDWGDGQQVYLAIGIAAKSDEHLQLLQLLTRALGEADLGPALSAAASAEEVLGLLQGAPQELALDAQLVGLGQNAEDLDELAWLGARLLKKAGCVENGFAAVLQQTEPLPLGDGLCWLHSEQLVKRPGLAFVTPAQPLQHQGQLVTGLFCLASLGEAHQALLERLCDLLLEGRGAELVRATSSRSVLAALGGELPPDWPSARAVLANPHGLHARPAQALAQLAKGFAGEIRVRLADSEAAPVSAKSLSKLLALGARRGQTLEFSAEPAIAEDALPALLAAVREGLGEEVEALAEEALPDAVGEAEEDARPAPLRAGERLQAIAASPGIASGPAHVQVAQRFEFQPRGESPAHERERLLRAKRAVDEEIVGLVERSTVKAIREIFVTHREMLDDPELAEQVQLRLNRGESAEAAWSRVVEDSAAQQEALHDALLAERAADLRDLGRRVLARLCGVEAPREPEQPYILVMDEVGPSDVARLDAQRVAGILTARGGATSHSAIIARALGIPALVGAGAAVLGLEPGTALLLDGEHGWLQVAPSTEQLQQAAAERDARQQRQARADAQRLEPARTRDGHAVEVCANLGDTAGAARAVELGAEGVGLLRTEFVFMNNARAPDLATQEAEYRRVLDALDGRPLVARTLDVGGDKPLPYWPIPHEENPYLGLRGIRLTLQRPQILETQLRALFRAAGERPLRVMFPMVGSLDEWRQARDLALRLREEIPLADLQLGIMVEVPSAALLAPVLAREVDFFSVGTNDLTQYTLAIDRGHPSLSAQADGLHPAVLQLIDMTVRAAHAEGKWVGVCGELAADPLALPLLVGLGVDELSVSARSIALVKAGVRELQLVAARGLARKALGLASAAEVRA,not soluble
8,MLEQPYLDLAKKVLDEGHFKPDITHTGTYSIFGHQMRFDLSKGFPLLTTKKVPFGLIKSELLWFLHGDTNIRFLLQHRNHIWDEWAFEKWVKSDEYHGPDMTDFGHRSQKDPEFAAVYHEEMAKFDDRVLHDDAFAAKYGDLGLVYGSQWRAWHTSKGDTIDQLGDVIEQIKTHPYSRRLIVSAWNPEDVPTMALPPCHTLYQFYVNDGKLSLQLYQRSADIFLGVPFNIASYALLTHLVAHECGLEVGEFIHTFGDAHLYVNHLDQIKEQLSRTPRPAPTLQLNPDKHDIFDFDMKDIKLLNYDPYPAIKAPVAV,soluble
9,MLERRDKEITDLKRRVANMVVVGKISHVDHKNARYRVKTGNLVSDWIPDTQARAGKTRSYEGRDVGEQVVVVSSSGDLSQGVIVGSIHTDANQAADKGNLHKTLYPDGTTIEYDDEQNSYALHLTSGGKFSLTISDGVSIKGDGKKLELQAAEGIKIISQGDLSLSAEKNIALKAGGSVSLHSDDGIALHSSEGVSIHSSDLKHNGTNIGNSHVHGGVSPGGSMTGGPN,soluble
10,MLERTQVFVDTSYLLASFYNSWEIGARAQLEIDLPEVVATLGNMIHNQLGQPVHRQFWYDGIPESGPHRYQRALRTCDGVQLRAGQLIEWGERRTQKAVDTRLVADMVLAGVRREFTDIVLVSGDADMIPGVQEAVNAGVRVHLYGFGWDSMSSALRHACDSTTILDPREDFSDCMQLEILEGPLPPVVRNPDEEGEEGEFPAAAAEATAAAAEAAADTTVTTDATDNEATPPVPTPEQVAEKSQREAPAAPIPCPQRPGEPALSEEDCMAEVPAKMPKPVAPKPGAHLPAETPAPAPTATPAPTPSSRTVRVTSTVEESLEVTVSNSAEPNVEAEEADTPATPRPAPNPSMMAPRRKLRSRYVPLPNEVWASAGYQTPFDVGQQYALWWFDNAATPEQRDSAHLLSGGGLPPEIDRPLLQFACETLHEYTLTEAQRVGLRDGFHSGIRGVLINNQNS,not soluble
11,MLFFETDATLALWGEAVLAATWAEFPQLARNQLALTWIVYDDPVPVNTGGAIAPQSFWSLPIRGFHYRGDEAIYPASVVKLFYLVAALEWLQQGMIQPSAELDRALRDMIVDSSNDATGYIVDLLSGTTSGPELGDGPFKTWQFQRNIVNRYYQSLMWPELQPINVNQKTWGDGPYGRERAFYGPEFENRNKLTTNATARLLHAIAGGVAVSPSASQRMLNLLNRPFDPRSLAEDPENQVTGFLGQDLPQGSQLWSKAGWMSRVRHDAAYLEIPGLPPHLLVAFTEGKEHANNEAILPFIAQQVRQQLQPALEHHHHHH,soluble
12,MLFHDIHDRAVKALPQILDRLIADGYQFAGWNGRDFSVARAPSATAAATVTTGYAKSWAIVIGIDDYARWPKLEYAANDAQAIANTLTGPLGFPSSQVIVLKNAEATRNNILAAFHDRLGDGRAQTNDRVFVFFAGHGATRRLASGRDLGYIIPVDSDPEHLANDAIAMSDLQNIAESLQAKHVLFVMDACYSGLGLTRGGPSSSAYLRENARRIARQMLTAGGADQQVADSGPNGHSVFTWVVLQALAGKGDLNGDGLITGTELAAYVAPAVSAVSAQTPAFGSLPGSQGGEFVFQVPSGEEFLTADTAQLSAAAIALNGRVDAVRPAAVSLEHHHHHH,soluble
13,MLFHRKIKVPDCVFKAEKRVLHVSDTPVSFYRTFDEILNLIKPDIIIHTGDLADDIKLERKPWLKKEYENALIKFKNIIRGRIVYLVPGNEDDKEIIREILGRDVILVNPGTIIEIYGRTFALGHKPEDVKGKEAEFKLYGHDPKSLFPFNGIHAIHIILFPEWKVVKIRYPSWVNYDRGYRIFRGLLEHHHHHH,not soluble
14,MLFISSDNQKEKRGMAGNKKINRREEILQALAEMLESNEGASRITTAKLAKQVGVSEAALYRHFPSKARMFEGLIEFIEESLMSRINRIFDEEKDTLNRIRLVMQLLLAFAERNPGLTRILSGHALMFENERLRDRINQLFERIETSLRQILRERKLREGKSFPVDENILAAQLLGQVEGSLNRFVRSDFKYLPTANFDEYWALLSAQIK,soluble
15,MLFLDSVAMKEKPEGREEYPFSVPAMRHLERLEFKTPITFFAGNNGSGKSTLLEGLAAGMTAYAIGNHGDVKGDLYLQHAETVAKAFYFARKKYPKIRMFLRAEDVLGYIRRQNENALDDFRWEREKALKKGEDFPEETPEIFRGIVRNNSLDRRSHGEGFLDIMHRRLHGAGLYFLDEPESPLSPQKQLELAAIIRQAADSGGQLIIATHSPVLLAIPEATIYYFDEDGITERLYDELENIAFLRRFLDRPSKYLDDLEHHHHHH,soluble
16,MLIDSFEDLDGVIQEIKFRLTRAPMEMGRERECCVLSTSPGCRRAASFPFVGDSSIIQASSLKVRSKSESEALNKMRLTQMNLETVRKRLSESTIKEKDEGSDYQSHSSSSSECEVDDLELFCAGPLELKEEEKLRKSVRFADDCGHELYMVRVATEPSNCPPKLSPSVLRRYRGESFEEEEMTTREPAPVWNLMFKQPAADYVRFRENMETNKVSLENVILNNEAYKVMGTIKVGNIAFEKSVFVRYTMNGWISYMDKAAIYQPSTSKIQDTFKFDLDLPSSVEKIHQIEFCICFKANGTEYWDSNSGTNYVLHCEQQQHPAVPQQRRASLFGSSKYLDRDDAYKLDYNDWGKFASWKALSTDGPYW,soluble
17,MLIHIGIDDTDSPNGMCTTYIGAILYREISKIAEPLDFPRLIRLNPNVPYKTRGNGAVAMSFKIDEEKIKEVKTLVIRYVRELADIDHENTNPGIVFLIGEVPKELEEFSLRALREHVTIEEAEHVARKVNAEVYKFKLGRGIIGGLAAIGYPLEKFTYELLAYRKREYWGTPRRVIKESVFYADKWSYPFTYDNVDPYKRTVLITPHGKDPVLVGIRGIDVGKILQVFEMIKIEEPIEFFQVYKTNQNTDDHLVVKKIKDVKPYDNVVIRGKVAGKYWEKGRHVFFELEDETGKIRVAAFEPTKKFRNYVRKLLPGDEVIIAGGVKEFEGVLTVNLEKFYPVNLVPKVEYEKPRCPKCGGTMKSKGDYLKCKKCGYKMEKILTPVKRPRDLKKKIYEVPPDARKHISRPLVLPGGEDKILEALLEHHHHHH,soluble

# — the DeepSol protein solubility set
